Experiment [1] concerns the target T1, human CD19 on Ramos cells (B-cell lymphoma) (human, UniProt P15391 20-556).
T1 construct: whole, on cells; also called hCD19
T1 sequence (looked up): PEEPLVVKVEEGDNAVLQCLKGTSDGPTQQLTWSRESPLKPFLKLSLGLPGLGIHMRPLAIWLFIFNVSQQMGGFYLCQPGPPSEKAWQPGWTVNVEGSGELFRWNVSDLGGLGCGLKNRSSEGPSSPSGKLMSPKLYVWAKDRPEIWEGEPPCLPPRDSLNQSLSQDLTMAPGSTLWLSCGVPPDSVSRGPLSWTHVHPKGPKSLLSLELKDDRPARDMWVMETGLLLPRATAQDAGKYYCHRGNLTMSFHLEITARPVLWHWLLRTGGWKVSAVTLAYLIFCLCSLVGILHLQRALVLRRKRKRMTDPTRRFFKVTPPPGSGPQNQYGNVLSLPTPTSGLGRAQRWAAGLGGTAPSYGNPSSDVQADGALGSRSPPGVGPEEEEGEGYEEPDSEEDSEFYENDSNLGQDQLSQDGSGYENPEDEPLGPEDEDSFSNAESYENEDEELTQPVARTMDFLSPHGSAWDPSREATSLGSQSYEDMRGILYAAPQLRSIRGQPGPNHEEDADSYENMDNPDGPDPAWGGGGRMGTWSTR
The experiment is described as follows: flow cytometry of Ramos cells incubated with M12 supernatant, detected with PE anti-mouse I-A/I-E. On the procedure:
Ramos cells were incubated with culture media (negative control) or supernatant from M12 cells expressing BMiMS, then stained with fluorophore conjugated antibodies against the indicated immune molecules and analyzed by flow cytometry.
M12 cells were cultured to confluency (1-2×10⁶ cells/mL) in complete RPMI (5% FCS) and the supernatant was harvested for analysis as described above. Ramos cells were harvested, washed, and 1×10⁶ were incubated with media (negative control) or 0.250 mL of concentrated (50 mL down to 0.250 mL in Amicon Ultra 15 10 kDa (Millipore)) M12 cell culture supernatant at 4° C. for 1 hour. After washing, cells were stained with PE conjugated anti-mouse I-A/I-E (clone M5/14. 15.2, eBiosciences), PE conjugated anti-mCD80 (clone 16-10A1, BioLegend), anti-mCD86 (clone GL-1, BioLegend) or anti-mlCAM-1 (clone YN1/1.7.4, eBioscience) and analyzed by flow cytometry.

Experiment [2] deals with T2, recombinant huCD19 (BioLegend) (human, UniProt P15391 20-291, limits assumed).
T2 construct: Bought reagent; also called rhuCD19
T2 sequence (looked up): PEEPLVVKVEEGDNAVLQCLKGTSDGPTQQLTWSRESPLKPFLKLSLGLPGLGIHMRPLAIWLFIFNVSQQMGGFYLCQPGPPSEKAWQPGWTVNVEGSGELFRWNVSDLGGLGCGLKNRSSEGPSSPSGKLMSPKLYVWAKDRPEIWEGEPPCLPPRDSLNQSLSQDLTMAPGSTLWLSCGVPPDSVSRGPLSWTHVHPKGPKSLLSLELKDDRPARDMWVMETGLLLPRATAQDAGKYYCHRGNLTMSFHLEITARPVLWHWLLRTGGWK
Description: plate coated with 4 ug/ml recombinant huCD19, BMiMS supernatant, washed; retention read through IL-2 of 5c.c7 T cells. As for the experimental part:
An experiment was designed to determine whether BMiMS can bind huCD19 and stimulate CD4+ T cells. See FIG. 9A. pMHCII-based BMiMS were made with the moth cytochrome c […] peptide (MCC) tethered with a flexible linker to I-E^k (MCC:I-E^k) which is recognized by the 5c.c7 TCR. For a pilot experiment, the wells of a 96-well plate were coated with 4 μg/ml recombinant huCD19 (BioLegend). The wells were washed and then incubated with concentrated supernatant from cells expressing pMHCII-BMiMS, CD80-BMiMS, or both. Naive 5c.c7+CD4+ T cells from 5c.c7 TCR transgenic mice (RagKO) were then incubated for 18 hr in the wells prior to harvesting of the supernatant for measurement of IL-2 by ELISA. No IL-2 was produced by cells cultured in wells with huCD19 only or the huCD19+CD80 BMiMS. IL-2 was produced by T cells cultured in wells with huCD19+pMHCII-BMiMS, and higher levels of IL-2 were produced by T cells cultured in wells coated with huCD19+pMHCII-BMiMS+CD80-BMiMS.

B1: mMHCII-Anti-hCD19 BMiMS (MCC:I-E^k fused to anti-hCD19 AltIg Fv of mAb B43, opened C-C' loop) (other)
MHC II alpha: CIKEEHTIIQAEFYLLPDKRGEFMFDFDGDEIFHVDIEKSETIWRLEEFAKFASFEAQGALANIAVDKANLDVMKERSNNTPDANVAPEVTVLSRSPVNLGEPNILICFIDKFSPPVVNVTWLRNGRPVTEGVSETVFLPRDDHLFRKFHYLTFLPSTDDFYDCEVDHWGLEEPLRKHWEFEEKTLLPETKESRGGLEVLFQGPEFGGSTTAPSAQLEKELQALEKENAQLEWELQALEKELAQAAAGQPPKLLIYDASNLVSGIPPRFSGSGSGTDFTLNIHPVEKVDAATYHCQQSTEDPWTFGGGTKLEIKSPGSGGGGSGGGGSGGGGSSGELVLTQSPASLAVSLGQRATISCKASQSVDYDGDSYLNWYQQIGGGGSHHHHHH
MHC II beta: CADPSGSANERADLIAYLKQATKEFRSGGGGSLVPRGSGGGGSVDRPWFLEYCKSECHFYNGTQRVRLLVRYFYNLEENLRFDSDVGEFRAVTELGRPDAENWNSQPEFLEQKRAEVDTVCRHNYEIFDNFLVPRRVEPTVTVYPTKTQPLEHHNLLVCSVSDFYPGNIEVRWFRNGKEEKTGIVSTGLVRNGDWTFQTLVMLETVPQSGEVYTCQVEHPSLTDPVTVEWKAQSTSAQNKSRGGLEVLFQGPEFGGSTTAPSAQLKKKLQALKKKNAQLKWKLQALKKKLAQAAAGQGLEWIGQIWPGDGDTNYNGKFKGKATLTADESSSTAYMQLSSLRSEDSAVYSCARRETTTVGRYYYAMDYWGQGTTVTSPGSGGGGSGGGGSGGGGSSGQVQLLESGAELVRPGSSVKISCKASGYAFSSYWMNWVKQRGGGGSHHHHHH
notes: Heterodimer secreted by M12 cells, used as concentrated culture supernatant; also called pMHCII-BMiMS; pMHCII-based BMiMS
Regarding B1, the binding result in experiment [1] and in experiment [2] was “binds” in each case.

(Values after patent US20230272071A1 (ARIZONA BOARD OF REGENTS ON BEHALF OF THE UNIVERSITY OF …, published 2023).)
